Laboratory results: PMC9241285

Target: recombinant human Aβ42 sodium hydroxide (NaOH) salt (human) (UniProt P05067)

recombinant human apoE4, sequence (P02649 19-317): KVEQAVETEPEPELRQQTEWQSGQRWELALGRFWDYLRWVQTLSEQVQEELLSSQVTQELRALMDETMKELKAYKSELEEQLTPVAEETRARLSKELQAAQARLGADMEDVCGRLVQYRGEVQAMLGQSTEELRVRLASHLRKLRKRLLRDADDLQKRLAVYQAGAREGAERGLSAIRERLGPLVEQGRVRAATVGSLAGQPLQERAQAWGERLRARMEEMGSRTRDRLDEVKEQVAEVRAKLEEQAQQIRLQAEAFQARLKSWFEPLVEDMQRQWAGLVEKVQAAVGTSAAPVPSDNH

reduction of apoE4-catalyzed Aβ42 fibrillization (ThT, HTS assay) by imipramine at 0.25, 2.5 and 25 μM; no effect on Aβ42 alone: > 30%
reduction of apoE4-catalyzed Aβ42 fibrillization (ThT, HTS assay) by olanzapine at 0.25, 2.5 and 25 μM; no effect on Aβ42 alone: > 30%
reduction of apoE4-catalyzed Aβ42 fibrillization (ThT, HTS assay) by sulfacetamide at 0.25, 2.5 and 25 μM; no effect on Aβ42 alone: > 30%
Substance: recombinant human apoE4 (from UniProt P02649 19-317) (natural protein)
